Laboratory results as given in the DeepSol protein solubility set.

Experiment: soluble on expression in E. coli; label from the status in PepcDB or PDB records

| Sequence | soluble on expression in E. coli |
| --- | --- |
| MSLQVVIKFGGTSVSTRATWNNIAAITQKHLNTGVQPVIVCSALTQISNKLEKAIEAALLDEHHSLFNDIQSSHLNLAEQLEVNHQLIANDLHQLQQWLTGISLLKQAPAKTHAQILSLGELMMTRMGHAFLERHEIKVKWYDARELLTSTPTLGGETMNYLSARCESEYDPGLVEKFLSSGAQAIITQGFFAANPHGETVLLGRGGSDTSAALLAGKLQAASCEIWTDVPGIYTANPHQLPHARLLKQLNYDEAQEIASMGAKVLHPNCIPPVRKANIPMVVKYTHLPEHSGTLITKDIDESAPLIKSIQVKHSILLISIDTLNMWQQVGFLADVFAAFKKHGFSVDLLSSSEFNVTLSLDVNAKIHDRPAINALLDDLNQFGRAKLIEPCSAVSLVGHHIRTVLPHLGPALEVFEAKQVYLMSLASNDLNLTFVVDESHADKLCQRLHHLLIESNPQIFYYSKSWHEEFGKPNVRPTPWWEIERDRLLTTSAIHSPCYVYHSPTQAIRARQLSALESIDSLFYAVKANPFPSILKTLEKEGIGFECVSIQELELVLKLFPNIKKERILFTPNFAPKSEYEFALQTGCYVTIDSLYPLENWPELFKNREVIVRIDPGTGAGHHKHVSTGGNESKFGITQNDISKILSLTKSNHIKVIGLHAHSGSGILSTDLWQQTAVMLASLTDQFPEVRSINLGGGLGIVEKPGQHPIDFAALDAQLMAVKSQYPGLAIWLEPGRFFVAESGVILAKVTQCKEKGKVKFIGIETGMNSLIRPSLYGAYHEIVNLTRLHEEKAGFAHIVGPICESGDTLGYDRLLPVTKEGDVILIANTGAYGHCMSSHYNLRPPAQEIVLEEGHHHHHH | soluble |
| MAHHHHHHMNEKGNFMKKAYKNNNIQLSENQINQRIKNVNLTKRLICYERYLKAIPKIERRNDLKNSWHPETPRYNKQISLSQWNKELKKWRKQIHAWGNISEEDHRYICKLSYTDKYKYLCNLKMPELSNLEIKNMKKENEEISHDILKHILLIQNKHNNPFDENDKIMYQPIFFLPENFSGTVVHNEFVIIKEQNMEKYLTLLKDKYKDKYNYCFKKYYELYLLNKDSDNKNVENSKNTIPKNGKNHIVIYLGKETKPLNYKNKEAQYEQKEKMEAYNFLCGSTKKYENHNKMNKRKKF | not soluble |
| MEKFIDENVAFGRMPYEDEIDELVEKFDAFVVLVEDFELVYDIEELKKKVDVLHSPIPDFTAPSLSQLYKIVKWIEEKVKEGKKVYIHCYGGSGRSGTVAVAWLMYSQGLSLREGLRRVRLLKPSAVETEDQLEVLREFERFLDTR | soluble |
| EKVDIDLRDQVSLQHGAQIFTNYCLSCHSASGMRFNRLKDIGLTDEEIKKNLMFTTDNVGDVMHSAMNPKDAAKWFGAAPPDLTLIARSKGADYLYAYMRGFYKDPTRPSGWNNTVFDKVGMPHPLWEQQGVQAVELDAKGQPVMVKDEHGEMKPKLYWESTGLHSRRLPNGKVIQKEYDAYVRDLVNYLVYMGEPAQLQRKR | not soluble |
| MISHLFQTYGRRTVEFVKGNGTKVIDNNGKQYLDFTSGIGVCNLGHCHPTVMKAVQEQLNDIWHISNLFTNSLQEEVASLLTENIALDYVFFCNSGAEANEAALKLARKHTGKSLVVTCEQSFHGRTFGTMSATGQNKVKEGFGPLLPSFLHTPFNDIKALKEVMNEEVAAVMVEVVQGEGGVIPADLSFLKEIETLCKKFGSLFIIDEVQTGIGRTGTLFAYEQMGIDPHIVTTAKALGNGIPVGAMIGRKELGTSFTAGSHGSTFGGNYVAMAAAKEVLQVSKRLSFLKEVQEKGEYVLQKLQEELQHVECIQNIRGKGLMVGIECTHEVASFIEQLEKEGLLVLQAGPNVIRLLPPLIVTNEELEQAVYMIKKVVCTKNVSII | not soluble |
| MIVAFENNVVCSDEKVRDYLLAHHADLKEDQDEDALCLVRLHKEEDIDGTDRVDLAGWREISRELYWTGEQMECNYSIIRFSRKTTSLQMSVVLSTCNQLEWLEKVLWGYEAQDTKNFELIIADDGSRKETYDMLQRITPQLSFQVKHVWHEDKGFRKCDILNKGILAAQADYLLFSDGDCIPRKDFVSTHLCLRRKGRFLSGGYHKLSMDLSKDITKDDILSGRCFDLQWMRGKGMPASFKNNKLTATGFKRWALNTFTPTKASWNGHNASGWLSDILAVNGFDERMQYGGQDREFGERLENYGIHGMQIRYSTVCLHLDHARGYKTKDSIQKNRNIRKHTRGAKVQWASLGIVKDELRGQSVKVNSYYDRYTREEEKLTSYKEKGGFYRHIYSLPCRWRRAKYHDKVVRAYQQDTDAPALSNHSGVIVSLTTFPPRISQLHLMLKSILWQTCPPEKIIVWLSEQEFPGRLNDLPEELKRLMAKGIAFRFVSENFRSHKKYHYVFREYPDSKVITVDDDLIYPRNTVERLLSLSYQYPDTVCGNVIRKIHMDGNSFSVYRKWTKVFTMPVNSSLQNVAIGCGGIYYPPHWYGEELFDWKIISEHCPSADDLWLKANELKRRVKVTGGGEFYPRPIELPQTQNNSLQKKNNGKTNLNDKQWKSLNELWKLDELYCINGK | not soluble |
| MGSDKIHHHHHHMIKVNRYEIFLDFSFQTGDYKGYEKIEMESDEETVVLDAVGLKIVKAKVNGKEIEFSQDESRVNVKSGSFSGILEVEFEGKVTERKLVGIYKASYKDGYVISTQFEATHARDFIPCFDHPAMKARFKLTVRVDKGLKVISNMPVVREKEENGKVVYEFDETPKMSTYLLYLGIGNFEEIRDEGKIPTIIVATIPGKVQKGRFSMQISRNSIEFYEKYFEIPYQLPKVHLIAIPEFAYGAMENWGAITFRETALLADDSSSVYQKFRVAEVVAHELAHQWFGNLVTLKWWDDLWLNESFATFMSHKAISQLFPSWNFWDYFVLNQTSRALEKDSVSTTHPIEAHVRDPNEVEQMFDDISYGKGASILRMIEAYVGEENFRRGVVNYLKKFSYSNAQGSDLWNSISEVYGSDISPIMADWITKPGYPMVRVSVSGKRVSLEQERFSLIGNVENLLYKIPLTMEVNGKVVTHLLDKERDTMVFEEDVKSLKVNVNRTGFYRVFYYNNSDLVFNSNLSELDKWGIINDYWAFLLAGKIGFKEYERVISKFFNDKDFLPVNELSNELFTLHAINPDKYQGIAKEFHRIQLKNWRNSKDELGRLTYSNILYRLAAIDDEFSLGLSELFRFYGSLDSDTRQGVAVAYAITYEDNSVDELLERFRKETFDEEKLRYLTAMLFFRKPYLVGNTLSLILSGEIKKQDIPLTLSTAAYNPYAKSAVLNWIKMHINFMREAYKGTGILGRRLAEVIPLIGIGAERETEQFFSNLNMPEAERGIGTGLELLKAYSRLK | not soluble |
| MFDPPALKNSVISFLNKRRHSSGGYTLYEGLPDSKNTYYAIRSFEVLDHEPPRLEETLDWLEDVHRGGTFAAQGLFYRCSILRDYGRNFEIPEKFTEMLRTSYRKSSLEITFYMDSVLRMHGEYLDEIPEWVLSIQNEDGGFGAYGSDIINTRFALEILNGHGMKIPGDEVLQFTDSCFSDGAWNFTPISYPPYIETVHSGFRINEILRGKVSDVTRFIMKIRNPDGGFRRSVYMGISEPEYTYRAIYMLASIHGW | not soluble |
| MAHHHHHHMYRLVKFLYVNLLASTDLKRKYARAGDWAIVTGATEGIGYAMAMELARRGFNVCVVARTRSKLDAVVAEIEKKGVQGKAVVFDFSTADAQAYKRLFAELELLEVAILVNNVGVNYPYANYFDEADVEEDMKMLKVNCEATLRMTRFIVPRLKAKRSGGIVFLSSISATVPSPLLSAYAGTKSLSLSFGEGLAYELQQFGVDVLTVTPSLVVSRMTQGVSSRKPKETLFMVNAAAMAHQTLNKLGIVTRTAGHINHALLNSCLRILPESLVANKILTMHQAIKRRAERSRTQ | not soluble |
| MGKALPFYLSPYPVDFWTNASFSDEEHEDAALSNSHLGRNAMVPPQGRSGPASWILRSVRDPGFAPCPPWSWIYHQFRIAWLRCVVRMDGRAPQVQTGQSTSPAKAASNATALQDQA | not soluble |
| MSRPLSIALISETYPPEVNGVANTLGRLHAGLQQLGHRVQVVRPRQPGDDGRRSDAELVLTRGWPLPGYPGLQWGMSSLHKLLRCWKRQRPDVLYIATEGPLGFSALRAARRLGIPAVSGFHTNFQQYSEHYGFGPLTRLVTGYLRWFHNRTQMTLVPSGSQRMELQRRGFERLNLLSRGVDSQLFHPSRRDPELRRRWGLGEQDIAVLHVGRLAAEKNLGLLGGTFRALCAAHPQLKLRLVLVGDGPERKHLERDLPEALFCGVQRGETLAAHYASGDLFLFPSLSETFGNVVLEAQAAGLAVVAFDQAAAGQHIRHGHNGVLAAPGDKSGFVEVASWLLDDQERLRRVRLNARQHASRQGWDSIVEHFQNYLEDACASPLVQPARSKPERPPAEDGGALPRSRELEHHHHHH | not soluble |
| MPLEASELKPTAGPLEASELKPTAGPLEASELKPTAGPLEASELKPTAGPLEASELKPTAGPLEASELKPTAGPLEASELKPTAGMKLKGRGIVKGVAEGELVVSRKPLSFLGGVDPNTGIITDPESDIQGEKITGKILAFPRGKGSTVGSYVIYALAKKGTGPKAIIVEEAEAIVAVGAIIAGIPLVTGIDISKLKSGMKVRVDGERGEVEIIAQGDLLEHHHHHH | not soluble |
| MGSDKIHHHHHHMSDIVIKAENLGKKYIIGHQAENGRYQALRDVLMHNAQTLWNKTKDLAKGNPLIHGDTLEEVWALKDVSFEIRRGEAVGIIGRNGAGKSTLLKILSRITDPSAGRVTIDGRVASLLEVGTGFHPELSGRENIYLNGTILGMSRKEINQKFDEIVDFAGIEKYLDTPVKRYSSGMYVRLAFAVAAHLEPEILVVDEVLAVGDAEFQKKCLGKMGDVTKEGRTVLFVSHNMVALSALCFRSINLDSGKIIYNGHVDTGVLIYMNGLSNIDNPISYKTRSATGTGEMKIINSFLLRNGKPTLSNVACGDKVDICIEFECCTEKPRFHFALDIYNSKGNRIAYCNSLYTMGVSWVQLPKIFLAKCSFPKLPFFPDEYRVDISIHCNDERADYLQGALSLKVYEGDFYGSGKIPPISGASPIMLLEHKWTIDN | not soluble |
| MSLNSMELLIIKERRIDYDGSAIRSHWAYRNFGILGDSLVVFRGKCNVKVEEMVDIEDLRLRKEIKGDDMVHYILELFWHPDILLASSLQKLLIARLVELLWNYGIEASRRGDDIYVNGRKLSISIATVSPVSIKIHIGLNVKTVGVPPGVDAIGLEELGIDPTEFMERSAKALVEEIEKVRKDSLKVRWVTEGHHHHHH | soluble |
| MLLEISIYCRGGQGGVTAARILAATAMLQGYYSQSMPQFGPERRGAEVRAFLRISDERIRRKCPITYPDVVILFDLKLSFNGNPETVVVNCNGSSFTGHGNVFALDATEITRRYGLVNAGWPILGPAMAGTAAKALDLDPRCLLEAIRLELGDKADRSVKAAEEAYRVVECV | not soluble |
| MSHHHAPVDFEKEASILRNHFNNAEIDLLLLIKKHVMYGAKNPTKWKFIQQSRLIRFKRELKAHISLFKDETRNKIDKLTYRVYLDCVNEYEDEMEARYQTKKEVDIQNDDYLSESDALIQISEDMANYWQKIAPSKYKQVVKETKDSNGVLKYAIATSLINVLGDGIRNVIDQSGRKYRPGAYMEMASRGAFFNVGLNAMKRVLGRYEHELVQVSAHVRSCPRCAPWQGEVLSVNYESNEYKTLQEAENDGLFHPNCHHFLYSYFEGDETDEPIPYDEEEYEAQSKQRYYERGIRDWKTKDILAEGPSKQYTAGKVKQWEEALQEHLNNN | not soluble |
| AAHQLTIVHLEARDIDRPNPQLEIAPKEGTPIEGVLYQLYQLKSTEDGDLLAHWNSLTITELKKQAQQVFEATTNQQGKATFNQLPDGIYYGLAVKAGEKNRNVSAFLVDLSEDKVIYPKIIWSTGELDLLKVGVDGDTKKPLAGVVFELYEKNGRTPIRVKNGVHSQDIDAAKHLETDSSGHIRISGLIHGDYVLKEIETQSGYQIGQAETAVTIEKSKTVTVTIENKKVPTPKVPSR | soluble |
